B1: HDAC6 (parent)
chain: QEGLLDRCVSFQARFAEKEELMLV

Variants of: B1
Assay: protein stability index of a GFP-peptide fusion (GPS, HEK-293T) (PSI 1-6); higher = more stable
Conditions: c terminus: a fixed tail appended
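Note: lentivirally expressed fusions sorted by FACS into six bins by GFP to DsRed ratio, PSI derived from sequencing read proportions per bin multiplied by bin number.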

Protein stability index: each site, then its substitutions
R14: T 2.14, E 2.57, F 1.56, C 2.21, D 2.54, M 1.66, S 1.9, L 1.7, G 2.07, I 2.35, K 2.06, P 1.97, Y 2.24, Q 1.71, A 1.4, V 1.38, N 2.41, H 2.27
V24: A 3.83, M 2.05, G 3.62, I 2.17, D 4.32, C 2.63, K 3.74, L 2.21, H 2.82, F 1.85, E 4.18
E20: L 1.62, D 2.32, Y 1.67, F 2.98, V 1.72, M 1.37, S 2.24, G 1.74, R 1.69, P 2.01, A 2.37, H 2.52, W 2.02, I 1.18, Q 1.86, K 1.96, N 1.84, T 2.14
S10: L 1.89, Y 2.56, R 2.37, W 1.86, V 1.45, N 1.66, D 2.19, M 1.64, F 1.83, I 1.77, H 1.75, E 2.17, T 2.31, C 1.77, K 2.13, A 2.5, P 1.99, G 1.82, Q 2.1
E19: S 2.14, R 1.84, L 1.49, H 2.14, G 2.6, M 1.58, V 1.49, I 2, N 1.6, A 1.76, W 2.08, T 2.87, F 1.98, D 1.76, P 2.18, Y 1.53, C 1.63, K 1.9, Q 1.67
F11: M 2.17, A 2.35, I 2, T 2.83, D 3.01, Y 2.03, K 2.33, Q 2.1, L 1.71, S 2.53, N 2.93, P 2.73, E 3.09, H 2.37, G 2.43, W 1.75, R 2.66, V 2.17, C 3.17
L23: G 3.93, M 1.83, R 3.35, K 3.55, P 3.45, W 1.89, E 3.49, C 2.59, A 3.4, I 1.85, H 2.57, S 3.25, Q 2.32, V 1.93, Y 2.14, N 3.82, D 4.37, F 1.96, T 2.98
C8: K 2.45, Q 2.12, A 1.97, P 1.87, W 1.62, T 2.27, Y 4.19, L 1.57, V 2.17, H 1.93, N 1.9, I 1.67, S 2.44, R 1.98, E 2.04, F 1.61, G 2.61, M 1.98, D 1.77
F15: I 1.56, P 3.02, E 2.91, K 3.13, Y 1.62, V 2.49, A 2.33, M 2.16, Q 2.55, L 2.23, S 2.9, W 2.36, N 3.04, R 2.58, G 2.54, D 3.55, C 2.36, T 2.81, H 2.4
Q12: C 2.1, T 1.99, F 1.69, K 2, V 1.14, G 2.77, A 1.66, E 1.83, P 2.47, H 2.81, L 1.52, R 1.58, I 2.57, D 1.87, M 2.02, S 1.6, W 1.08, N 2.65
M22: C 3.01, A 2.93, G 3.27, L 2.03, V 1.92, W 1.95, T 3.2, K 3.31, E 4.27, I 1.92, S 3.43, H 2.59, N 3.84, P 3.99, Y 2.03, R 3.14, F 1.88, D 4.03, Q 2.81
D6: V 2.06, W 2.38, Y 1.95
R7: S 3.14, K 1.43, W 1.83, E 1.93, M 1.92, Q 1.94, G 2.17, C 2.32, Y 1.66, P 2.56, A 2.74, H 1.7, I 2.91, T 1.73, D 1.69, N 2.13, V 1.71, L 2.69, F 2.59
V9: Q 2.7, C 2.18, A 1.71, D 2.29, F 1.63, N 2.58, W 1.79, K 2.34, E 2.35, L 1.74, G 1.9, R 2, M 2.57, P 2.36, H 1.94, S 2.84, T 2.07, I 2.44, Y 2.29
K18: L 1.49, N 1.77, D 1.79, H 1.44, E 2.38, R 1.45, A 1.98, W 2.1, V 1.96, P 2.07, I 2.6, M 2.04, T 2.66, S 1.75, F 2.51, G 1.63, Y 1.78, Q 2.17, C 2.17
L21: V 2.14, T 2.73, A 4.12, Y 2.17, R 3.06, P 3.29, D 4.3, H 2.45, W 2.03, G 3.76, N 3.78, K 3.17, I 1.59, C 2.18, Q 2.88, F 1.98, M 2.14, E 3.16, S 4.16
A16: Y 1.65, G 1.62, E 2.6, K 2.38, H 1.41, R 2.62, S 2.21, Q 1.93, I 2.31, P 2.11, M 1.87, D 1.84, C 1.48, V 1.5, W 1.03, F 1.75, N 1.97, T 1.74, L 1.07
A13: W 2.2, S 1.57, M 1.89, L 1.38, C 1.4, I 1.47, Y 1.76, E 1.31, K 2.47, P 2.05, G 1.85, R 1.93, D 2.44, Q 2.08, H 2.59, V 1.39, N 1.89, T 2.03, F 2.2
E17: S 1.7, A 2.05, I 1.58, R 2.03, C 1.73, W 1.02, M 1.4, Q 2.05, T 1.46, K 1.72, V 1.21, Y 1.67, L 1.85, G 1.95, F 1.53, D 2.14, H 1.49, P 1.73, N 1.68

From the supplement of paper PMC10567573
